Experimental findings from PMC5735850 (The Plant journal : for cell and molecular biology, 2017) are described below.

Changes are numbered by the printed parent chain. Names may count otherwise.

To fix the notation:
B1: AtFUT1 (Arabidopsis thaliana; Q452A) (protein)
chain: GVFPNVTNINSDKLLGGLLASGFDEDSCLSRYQSVHYRKPSPYKPSSYLISKLRNYEKLHKRCGPGTESYKKALKQLDQEHIDGDGECKYVVWISFSGLGNRILSLASVFLYALLTDRVLLVDRGKDMDDLFCEPFLGMSWLLPLDFPMTDQFDGLNQESSRCYGYMVKNQVIDTEGTLSHLYLHLVHDYGDHDKMFFCEGDQTFIGKVPWLIVKTDNYFVPSLWLIPGFDDELNKLFPQKATVFHHLGRYLFHPTNQVWGLVTRYYEAYLSHADEKIGIQVRVFDEDPGPFQHVMDQISSCTQKEKLLPEVDTLVERSRHVNTPKHKAVLVTSLNAGYAENLKSMYWEYPTSTGEIIGVHQPSQEGYAQTEKKMHNGKALAEMYLLSLTDNLVTSAWSTFGYVAQGLGGLKPWILYRPENRTTPDPSCGRAMSMEPCFHSPPFYDCKAKTGIDTGTLVPHVRHCEDISWGLKLV
B2: AtFUT1 (Arabidopsis thaliana; Y486F) (protein)
chain: B1 chain with A369Q, Y403F
B3: AtFUT1 (Arabidopsis thaliana; D550A) (protein)
chain: B1 chain with A369Q, D467A
B4: AtFUT1 (Arabidopsis thaliana; D300A) (protein)
chain: B1 chain with D217A, A369Q
B5: AtFUT1 (Arabidopsis thaliana; H523A) (protein)
chain: B1 chain with A369Q, H440A
B6: AtFUT1 (Arabidopsis thaliana) (protein)
chain: B1 chain with A369Q

The first data set concerns the target T1, AtFUT1 (Arabidopsis thaliana, UniProt Q9SWH5).
T1 sequence (Q9SWH5 84-558 limits assumed): B1 chain with A369Q
The data set is described as follows: real-time 1H NMR of fucosylation. The format is biochemical. The settings on record: 0.4 mM XLLG, 0.4 mM GDP-Fuc, 4.7 μM enzyme, pH 6.8 in D2O, 25°C.
On to `OC[C@H]1O[C@@H](O[C@H]2[C@@H](OC[C@H]3O[C@@H](O[C@H]4[C@H](O)[C@@H](O)[C@H](O[C@H]5[C@H](O)[C@@H](O)C(O)O[C@@H]5CO)O[C@@H]4CO[C@H]4OC[C@@H](O)[C@H](O)[C@H]4O[C@@H]4O[C@H](CO)[C@H](O)[C@H](O)[C@H]4O)[C@H](O)[C@@H](O)[C@@H]3O[C@@H]3O[C@H](CO[C@H]4OC[C@@H](O)[C@H](O)[C@H]4O)[C@@H](O)[C@H](O)[C@H]3O)OC[C@@H](O)[C@@H]2O)[C@H](O)[C@@H](O)[C@H]1O` (stereo partly shown) [XLLG], for which the “real-time 1H NMR of fucosylation” value is “The xyloglucan oligosaccharide XLLG (Figure 1a), composed of nine glycosyl residues”.

Substrate in another data set: C[C@@H]1O[C@H](OP(=O)(O)OP(=O)(O)OC[C@H]2O[C@@H](n3cnc4c(=O)[nH]c(N)nc43)[C@H](O)[C@@H]2O)[C@@H](O)[C@H](O)[C@@H]1O
In words: GDP-Glo luminescent GDP release, Michaelis-Menten fit. The format is biochemical, Arabidopsis thaliana. The settings on record: donor varied, 750 μM XXLG, 75 mM HEPES pH 6.8, 28°C.
Take B1: the Km is on record as 61.77 (±10.5) μM and the kcat is 0.00533 ± 0.000283 s⁻¹.
B2: the Km is recorded as 60.44 (±12.3) μM and the turnover number (kcat) came out at 0.0016 ± 0.0001 s⁻¹.
The matching figures for B3: 55.33 (±6.7) μM and 0.00343 ± 0.000167 s⁻¹.
Regarding B4, the Km is reported as 40.1 (±7.5) μM and the kcat stood at 0.00532 ± 0.000267 s⁻¹.
As to B5, the Km was 84.28 (±18.3) μM and the kcat was determined as 0.00123 ± 8.33e-05 s⁻¹.
In the case of B6, the Km is on record as 25.32 (±4.2) μM and the catalytic constant (kcat) was 0.0633 ± 0.000833 s⁻¹.
